# Experimental data from patent publication US20100221262A1 (Genentech, published 2010).
# Experiments:
# [1] = molecular target: T1, murine Netrin-1-Fc (Laminin V and VI homology domains, amino acid M1 to amino acid P455, fused to the Fc … (murine; human, UniProt O09118 25-455); experiment: SPR (ProteOn), Unc5B-His immobilised, mNetrin-1 injected at 250 nM
# Method: (§1) Binding experiments were performed by surface plasmon resonance SPR measurements on a ProteOn XPR36 instrument (Bio-Rad Laboratories, Inc.) at 25° C. In accordance with common SPR terminology, proteins that are immobilized onto the sensor chip are referred to as ‘ligands’, whereas binding partners injected in solution are referred to as ‘analytes’.
# (§2) For binding competition experiments human Unc5B-Fc and Unc5B-His proteins were used as ligands and immobilized at high surface densities (3000-4000 RU) on an activated ProteOn GLC sensor chip (Bio-Rad Laboratories, Inc.). Unc5B antibodies and Netrin-Fc were used as analytes. To perform binding assays, analytes and 1:1 molar mixtures of analytes were injected in PBS, 0.005% v/v Tween-20, pH 7.4, at a flow rate of 100 μl/min and sensorgrams for association and dissociation phases were recorded. Blank surfaces are used for background corrections. Analytes are injected for 240 s and allowed to dissociate for 600 s. […]
# (§3) For the SPRs binding experiments Unc5B-His and -Fc proteins were immobilized onto a ProteOn GLC sensor chips and mNetrin-1, Unc5B antibodies or equimolar mixtures of Unc5B antibodies and Netrin-1 were injected as indicated at a concentration of 250 nM. Binding sensorgrams were recorded for association and dissociation reactions. […]
# [2] = molecular target: T1, murine Netrin-1-Fc (Laminin V and VI …); experiment: SPR (ProteOn), Unc5B-Fc immobilised, mNetrin-1 injected at 250 nM
# Method: as §1, §2, §3
Binder,binding result [1],binding result [2]
"human Unc5B-His (two N-terminal Ig-like domains of Unc5B, amino acid M1 to amino acid V243, C-terminal Histidine tag) (receptor, range 1-243; The cloned range M1-V243 includes the native signal peptide; also called human Unc5B-His tagged protein; not shown: C-terminal Histidine tag) not shown",binds,–
"human Unc5B-Fc (two N-terminal Ig-like domains of Unc5B, amino acid M1 to amino acid V243, fused to the Fc portion of human IgG1) (Fc fusion, range 1-243; not shown: Fc portion of human IgG1) not shown",–,binds
